Residue numbers refer to the chain shown, from its start.

In experiment [1] the target is T1, biotinylated cynomolgus GDF-15 (cynomolgus, UniProt G7PWZ3 197-308, biotinylated, sites not stated).
T1 construct: also called Cyno GDF-15
T1 sequence: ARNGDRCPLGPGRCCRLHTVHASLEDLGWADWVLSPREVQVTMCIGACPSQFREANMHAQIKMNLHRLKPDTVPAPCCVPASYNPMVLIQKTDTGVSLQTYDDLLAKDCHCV
Kind of experiment: HTRF binding assay, biotinylated antigen, titration of antibody. An excerpt:
(§1) Supernatants generated from the immunizations with human GDF-15 and purified IgGs were screened to identify IgGs with specific binding to human, cynomolgus, or mouse GDF-15. The HTRF (Homogeneous Time Resolved Fluorescence) assay is based on detection of a measurable FRET signal upon binding of a titration of test antibody to biotinylated human H202D GDF-15 variant, cynomolgus GDF-15 and mouse GDF-15. Europium cryptate (EuK) labelled Streptavidin and anti-human IgG XL665 (Cis Bio) were used as secondary detection reagents serving as energy donor and acceptor respectively. In the absence of test antibody binding, there is no detectable FRET fluorescence. When test antibody binds to GDF-15, the resulting physical proximity between the secondary reagent donor/acceptor pair results in FRET. FRET was measured ratiometrically [665 nm (acceptor)/620 nm (donor)] on an Envision plate reader, and data plotted using PRISM 6® software (Graphpad).
In general terms: Time-resolved FRET reads energy transfer from a long-lived donor to a nearby acceptor.

The target of the next experiment is T2, mouse GDF-15 (mouse, UniProt Q9Z0J7 189-303).
T2 construct: also called mGDF-15
T2 sequence: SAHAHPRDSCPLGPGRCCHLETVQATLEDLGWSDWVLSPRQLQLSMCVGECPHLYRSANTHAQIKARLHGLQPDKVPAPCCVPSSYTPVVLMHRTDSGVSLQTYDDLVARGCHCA
Described as above.
Description: as §1

For another experiment, the target named is T3, mature human GDF-15 (human, UniProt Q99988 197-308).
T3 construct: Homodimer; also called hGDF-15; recombinant hu-GDF15
T3 sequence: T1 sequence with R6H, H21R, E54A, M63T, N64S, V112I
In words: HTRF epitope competition; competitor DyLight 650 labelled Antibody A; Europium labelled human GDF-15. From the text: Antibodies from the immunizations with human GDF-15, in the form of crude supernatants from the immunization or in the form of purified IgGs, were chosen on the basis that they bind and compete with an epitope recognized by a control anti-GDF-15 antibody “Antibody A”. A biochemical epitope competition format was applied using an HTRF epitope competition assay that measured the binding of DyLight 650 labelled Antibody A to Europium labelled human GDF-15 (Prospec). In the absence of Antibody A binding, there is no detectable FRET fluorescence. When Antibody A binds to GDF-15, the resulting physical proximity between the secondary reagent donor/acceptor pair results in FRET. Competition with an antibody that recognizes the same or similar epitope will result in a dose dependent reduction of the FRET signal. FRET was measured ratiometrically [665 nm (acceptor)/620 nm (donor)] on an Envision plate reader, and IC₅₀ values were determined by curve fitting the data to a four parameter logistic equation using PRISM 6® software (Graphpad).

Experiment [2] addresses T4, biotinylated human H202D GDF-15 variant (human, UniProt Q99988 197-308, biotinylated, sites not stated).
T4 construct: also called Human GDF-15 H202D
T4 chain: T1 sequence with R6D, H21R, E54A, M63T, N64S, V112I
In words: HTRF binding assay, biotinylated antigen, titration of antibody.
Description: as §1

Experiment [3] deals with T5, mature recombinant human GDF-15 with an N-terminal Flag and His tag, biotinylated (human, UniProt Q99988 197-308, chemically biotinylated with EZ link Sulfo-NHS-LC-Biotin, sites not stated).
T5 construct: not shown: N-terminal Flag and His tags
T5 sequence: T1 sequence with R6H, H21R, E54A, M63T, N64S, V112I
In words: SPR Biacore 8K, 25 C, biotinylated GDF-15 on streptavidin C1 chip, Fab as analyte. The procedure: (§2) The experiments were carried out using mature recombinant human GDF-15, human GDF-15 H202D variant, mouse GDF-15, and cynomolgus GDF-15 with an N-terminal Flag and His tag. All species were chemically biotinylated using EZ link Sulfo-NHS-LC-Biotin (Thermo).
(§3) Streptavidin was covalently immobilized to a C1 chip surface using standard amine coupling techniques at a concentration of 4 μg/ml in 10 mM Sodium acetate pH 4.5. Recombinant biotinylated GDF-15 species were titrated onto the streptavidin chip surface in HBS-EP+ buffer to enable Fab binding.
(§4) Multiple buffer-only injections were made under the same conditions to allow for double reference subtraction of the final sensorgram sets, which were analyzed using Biacore 8K Evaluation Software. The chip surface was fully regenerated with pulses of 50 mM NaOH.
For orientation: Surface plasmon resonance follows binding to a sensor surface in real time, without labels.

The target in experiment [4] is T6, mature recombinant human GDF-15 H202D variant with an N-terminal Flag and His tag, biotinylated (human, UniProt Q99988 197-308, chemically biotinylated with EZ link Sulfo-NHS-LC-Biotin, sites not stated).
T6 construct: also called Human H202D; not shown: N-terminal Flag and His tags
T6 chain: T1 sequence with R6D, H21R, E54A, M63T, N64S, V112I
The description is as above. The procedure: as §2, §3, §4

Experiment [5] has as its target T7, mature recombinant cynomolgus GDF-15 with an N-terminal Flag and His tag, biotinylated (cynomolgus, UniProt G7PWZ3 197-308, chemically biotinylated with EZ link Sulfo-NHS-LC-Biotin, sites not stated).
T7 construct: not shown: N-terminal Flag and His tags
T7 sequence: T1 sequence
The description is as above. The procedure:
as §2, §3, §4

Experiment [6] addresses T8, mature recombinant mouse GDF-15 with Flag and His tags (mouse, UniProt Q9Z0J7 189-303).
T8 construct: also called Flag tagged mouse GDF-15; not shown: FLAG and poly-His tags immediately C-terminal to the furin cleavage site (N-terminal on the mature protein)
T8 sequence: T2 sequence
Described as above. Here is the method: as §2, §3, §4

B1: AB1170074 (antibody, V domains shown)
VH: EVQLQQSGRELVKPGASVKMSCKASGYTFTNYVMHWVKQKPGQGLEWIGYINPHNDGTEYSEKFKGKATLTSDKSSSTAYMELSSLTSEDSAVYYCARWYYDGGYFAYWGQGTLVTVSA
VL: DIVMTQSPATLSVTPGDRVSLSCRASQSISDYLHWYQQKSHESPRLLIKYASQSISGIPSRFSGSGSGSDFTLSINSVEPEDVGVYYCQNGHSFPLTFGAGTKLELK
Usually IC50 stands for the concentration at which inhibition is half-maximal. For the molecule B1, the binding result (in experiment [1]; with mouse GDF-15) was “binds” throughout. The molecule further showed a half-inhibitory concentration (IC50) with mature human GDF-15 of 1.37 nM.

B2: AB1170019 (antibody, V domains shown)
VH: EVQLQQSGPELVKPGASVKIPCKASGYTFTDYNMDWVKQSHGKSLEWIGDINPNNGGTFYNQKFKDKATLTVDKSSSTAYMELRSLTSEDTAVYYCAREEKLYFGLMDYWGQGTSVTVSS
VL: DIQMTQSPASLSASVGETVTITCRASENIYSYLAWYQQKQGKSPQLLVYNAKTLAEGVPSRFSGSGSGIQFSLKINILQPEDFGNYYCQHQYGSPPTFGGGTKLEIK
For the molecule B2, the binding result in experiment [2] and in experiment [1] was “binds” in each case. Moreover, the 50% inhibitory concentration (IC50) with mature human GDF-15 is 0.864 nM.

B3: AB1170036 (antibody, V domains shown)
VH: DVKLVESGEGLVKPGGSLKLSCAASGFTFSSYAMSWVRQTPEKRLEWVAYISSGGDNIYYADTVKGRFTISRDNARNTLYLQMSSLKSEDTAMYYCTRALVENAYFDYWGQGTTLTVSS
VL: DSVLTQSPASLLVSLGQRATISCRASKSVSTSTYSYMHWYQQKPGQPPKLLIKYASYLESGVPARFSGSGSGTDFTLNIHPVEEEDAATYYCQHSREFPWTFGGGTKLEIK
In the case of B3, the binding result (in experiment [2]; in experiment [1]; with mouse GDF-15) was “binds” throughout. Besides, the half-maximal inhibitory concentration (IC50) with mature human GDF-15 worked out at 0.622 nM.

B4: AB1170040 (antibody, V domains shown)
VH: B3 VH with N57Y, E102D
VL: B3 VL with S2I, L12A, T33S, S60F
For the molecule B4, the binding result (in experiment [2]; in experiment [1]; with mouse GDF-15) was “binds” each time. Further, in the experiment with mature human GDF-15, the IC50 turned out to be 1.42 nM.

B5: AB1170244 Fab (Fab, V domains shown)
VH: EVQLVESGGGLVKPGGSLRLSCAASGFTFSSYAMSWVRQAPGKGLEWVAYISSGGDNIYYADTVKGRFTISRDNSKNTLYLQMNSLKTEDTAVYYCTRALVENAYFDYWGQGTTVTVSS
VL: DSVLTQSPDSLAVSLGERATINCRASKSVSTSTYSYMHWYQQKPGQPPKLLIKYASYLESGVPDRFSGSGSGTDFTLKISRVEAEDVGVYYCQHSREFPWTFGGGTKVEIK
notes: Fab of the humanized antibody, expressed as in Spooner et al. 2015
As a reminder, the Kd is the concentration at which binding is half-saturated. By koff is commonly meant a measure of how fast the partners let go of each other. By kon is commonly meant the rate constant with which the complex forms. For B5, the Kd in experiment [3] was found to be 2.35 nM; in experiment [4], 2.39 nM; in experiment [5], 5.47 nM; in experiment [6] it was 916 nM. The koff in experiment [3] was determined as 0.00558 s⁻¹; in experiment [4] it was 0.00595 s⁻¹; in experiment [5], 0.0145 s⁻¹; in experiment [6] it was 0.54 s⁻¹. Moreover, the association rate constant (kon) came to 2.39e+06 M⁻¹ s⁻¹ in experiment [3], 2.49e+06 M⁻¹ s⁻¹ in experiment [4], 2.64e+06 M⁻¹ s⁻¹ in experiment [5] and 591000 M⁻¹ s⁻¹ in experiment [6].

B6: AB1170245 Fab (Fab, V domains shown)
VH: B5 VH with N57Y, E102D
VL: DIVLTQSPDSLAVSLGERATINCRASKSVSTSSYSYMHWYQQKPGQPPKLLIKYASYLEFGVPSRFSGSGSGTDFTLTISSLQPEDVATYYCQHSREFPWTFGGGTKVEIK
notes: as for B5
Take B6: the Kd in experiment [3] amounted to 10.2 nM; in experiment [4], 10.5 nM; in experiment [5], 20.9 nM; in experiment [6] it was 2400 nM. The off-rate (koff) came to 0.0315 s⁻¹ in experiment [3], 0.0321 s⁻¹ in experiment [4], 0.0712 s⁻¹ in experiment [5] and 1.5 s⁻¹ in experiment [6]. Moreover, the kon in experiment [3] stood at 3.1e+06 M⁻¹ s⁻¹; in experiment [4], 3.07e+06 M⁻¹ s⁻¹; in experiment [5], 3.42e+06 M⁻¹ s⁻¹; in experiment [6] it was 643000 M⁻¹ s⁻¹.

B7: AB1170028 (antibody, V domains shown)
VH: DVKLVESGEGLVKPGGSLKLSCAASGFTFSSFAMSWVRQTPEKRLEWVAYITSGGDYIFYADTVKGRFTISRDNARNTLYLQMSSLKSEDTAMYYCTRDDGYLWFAYWGQGTLVTVSA
VL: SIVMTQTPKFLPVSAGDRVTMTCKASQNVGNNVAWYQQKPGQSPKLLIYYASNRYTGVPDRFTGSGSGTDFTFTISSVQVEDLAVYFCQQHYSSPLTFGAGTKLELK
Turning to B7, the binding result (in experiment [2]; in experiment [1]; with mouse GDF-15) was “binds” each time. Further, the IC50 in the experiment with mature human GDF-15 was determined as 0.485 nM.

B8: AB1170010 (antibody, V domains shown)
VH: QVTLKESGPGILQPSQTLSLTCSFSGFSLSTYGMGVGWIRQPSGKGLEWLANIWWNDDKYYNSALKSRLTISKDTSNNQVFLKISSVDTADTATYYCAQEVYGWFAYWGQGTLVTVSS
VL: DIVMTQSQKFMSTSVGDRVSVTCKASQNVGTNVAWYQQKPGQSPKALIYSASYRYSGVPDRFTGSGSGTDFTLTISNVQSEDLAEYFCQQYNSYPLTFGGGTKLEIK
Regarding B8, the binding result (in experiment [2]; in experiment [1]; with mouse GDF-15) was “binds” throughout. Besides, the IC50 with mature human GDF-15 is 0.758 nM.

B9: AB1520085 Fab (Fab, V domains shown)
VH: QVQLQQPGAELVMPGASVKMSCKASGYTFTDYWMHWVKQRPGQGLEWIGVIDTSESYTSYNQKFKGKATLTVDESSSTAYMQLSSLTSEDSAVYFCARGGTTVVLDYWGQGTTLTVSS
VL: B8 VL with N32A, Q38K, Y53T, S56T, N92S, Y94S, L96W, I106L
notes: Fab of the anti-mouse GDF-15 mouse IgG1, expressed as in Spooner et al. 2015
Turning to B9, the Kd worked out at 1.64 nM in experiment [3], 1.63 nM in experiment [4], 2.8 nM in experiment [5] and 0.14 nM in experiment [6]. Moreover, the koff was 0.00489 s⁻¹ in experiment [3], 0.00478 s⁻¹ in experiment [4], 0.0078 s⁻¹ in experiment [5] and 0.000244 s⁻¹ in experiment [6]. Besides, the association rate constant (kon) in experiment [3] worked out at 2.97e+06 M⁻¹ s⁻¹; in experiment [4] it was 2.92e+06 M⁻¹ s⁻¹; in experiment [5], 2.79e+06 M⁻¹ s⁻¹; in experiment [6], 1.75e+06 M⁻¹ s⁻¹.

B10: AB1170072 (antibody, V domains shown)
VH: B8 VH with E100M, V101A, G103S
VL: B8 VL with V29M, G30D, L96F, G100S
Consider B10, for which the binding result (in experiment [2]; in experiment [1]; in the experiment with mouse GDF-15) was “binds” throughout. In the experiment with mature human GDF-15, this molecule showed an IC50 of 0.693 nM.

These data come from US20220281965A1 (AstraZeneca / MedImmune, published 2022).
